The target in experiment [1] is T1, Human soluble IL-6R (human, UniProt P08887 20-358).
T1 construct: Soluble recombinant form; biotinylated in some assays; also called hIL-6R; human IL-6R
T1 sequence (looked up): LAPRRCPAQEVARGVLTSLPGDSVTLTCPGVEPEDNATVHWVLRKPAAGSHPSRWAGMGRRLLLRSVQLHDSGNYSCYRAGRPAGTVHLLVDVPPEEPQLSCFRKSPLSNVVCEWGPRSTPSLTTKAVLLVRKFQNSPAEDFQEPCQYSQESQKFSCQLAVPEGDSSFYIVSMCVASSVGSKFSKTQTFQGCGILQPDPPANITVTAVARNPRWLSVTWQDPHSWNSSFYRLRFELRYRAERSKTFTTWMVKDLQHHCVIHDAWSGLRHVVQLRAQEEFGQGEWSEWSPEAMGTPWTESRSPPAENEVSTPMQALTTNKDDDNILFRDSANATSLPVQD
Description: Biacore T100. For orientation: Surface plasmon resonance follows binding to a sensor surface in real time, without labels.

Experiment [2] has as its target T1, Human soluble IL-6R. Description: Biacore T100; value marked estimated.
The target in experiment [3] is T1, Human soluble IL-6R. Kind of experiment: Biacore T100, IL-6R covalently coupled.
The target of experiment [4] is T2, Cyno plasma sIL-6R (cynomolgus monkey, UniProt A0A2K5WN54 60-396).
T2 construct: also called cynomolgus sIL-6R
T2 sequence: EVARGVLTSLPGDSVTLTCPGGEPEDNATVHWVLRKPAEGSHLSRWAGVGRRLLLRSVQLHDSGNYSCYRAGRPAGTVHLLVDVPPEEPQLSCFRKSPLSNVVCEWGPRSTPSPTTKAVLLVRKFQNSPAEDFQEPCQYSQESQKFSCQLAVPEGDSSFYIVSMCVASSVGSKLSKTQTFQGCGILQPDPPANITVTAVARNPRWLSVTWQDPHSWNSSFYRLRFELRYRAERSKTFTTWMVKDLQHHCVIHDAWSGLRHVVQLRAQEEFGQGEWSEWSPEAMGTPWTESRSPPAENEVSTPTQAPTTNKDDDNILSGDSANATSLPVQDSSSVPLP
Kind of experiment: plasma potency assay, cyno plasma, 2.4 nM IL6; blocked ligand IL-6.
Description: (§1) All 5 affinity matured Nanobodies and the sequence optimized Nanobody were also tested in a plasma potency assay. […] TMB was used as substrate.

Experiment [5] has as its target T3, Human plasma sIL-6R (human, UniProt P08887 20-355, limits assumed).
T3 construct: also called plasma-derived human IL-6R
T3 sequence (looked up): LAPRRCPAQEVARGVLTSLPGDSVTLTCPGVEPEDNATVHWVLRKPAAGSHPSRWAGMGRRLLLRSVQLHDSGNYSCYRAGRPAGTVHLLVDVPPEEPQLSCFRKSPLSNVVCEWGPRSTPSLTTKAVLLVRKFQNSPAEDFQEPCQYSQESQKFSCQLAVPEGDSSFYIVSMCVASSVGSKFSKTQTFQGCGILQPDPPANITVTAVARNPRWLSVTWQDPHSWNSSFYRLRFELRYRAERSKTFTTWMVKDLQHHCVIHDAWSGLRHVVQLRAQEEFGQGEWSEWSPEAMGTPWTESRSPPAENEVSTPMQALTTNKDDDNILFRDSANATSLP
Kind of experiment: plasma potency assay, human plasma, 42 nM IL6; blocked ligand IL-6.
Description: as §1

The target of experiment [6] is T3, Human plasma sIL-6R. Kind of experiment: plasma potency assay, human plasma, 2.4 nM IL6; blocked ligand IL-6.
Description: as §1
Experiment [7] addresses T1, Human soluble IL-6R. Kind of experiment: Biacore, binding to IL-6R.
The target of experiment [8] is T1, Human soluble IL-6R. Kind of experiment: Alphascreen IL-6/IL-6R competition (IL-6R 0.3 nM, bio-IL-6 3 nM); row EC50 of the fit table, axis [competitor], M; blocked ligand IL-6. In general terms: In Alpha technology, singlet oxygen from a donor bead excites a nearby acceptor bead.
Experiment [9] deals with T4, Cyno IL-6R (cynomolgus monkey, UniProt A0A2K5WN54 60-396).
T4 construct: also called cynomolgus monkey IL-6R; recombinant cyno sIL-6R
T4 sequence: T2 sequence
Description: SPR Biacore 3000, cyno IL-6R amine-coupled to CM5.
Description: Remaining reactive groups were inactivated. […] Each sample was injected for 4 min at a flow rate of 45 μl/min to allow for binding to chip-bound antigen. Next, binding buffer without Nanobody was sent over the chip at the same flow rate to allow for dissociation of bound Nanobody.

The target of experiment [10] is T2, Cyno plasma sIL-6R. Kind of experiment: plasma potency ELISA, cyno plasma + human IL-6 50 ng/mL; sIL-6R captured on BN-12, bound IL-6 detected; blocked ligand IL-6. On the technique in general: ELISA stands for enzyme-linked immunosorbent assay.
Experiment [11] has as its target T3, Human plasma sIL-6R. Kind of experiment: plasma potency ELISA, human plasma + human IL-6 50 ng/mL; sIL-6R captured on BN-12, bound IL-6 detected; blocked ligand IL-6.
Experiment [12] deals with T1, Human soluble IL-6R. Description: Alphascreen, inhibition of bio-IL-6 binding to IL-6R.
Description: Finally streptavidin donor beads were added and after 1 hour incubation the plate was read on the Envision microplate reader. Parental clones were included as reference.
The target of experiment [13] is T1, Human soluble IL-6R. Description: Alphascreen IL-6/IL-6R competition (IL-6R 0.3 nM, bio-IL-6 3 nM); row EC50 of the fit table, axis [competitor], M; blocked ligand IL-6. This is another data set of the same source.

Where a chain is given by its changes, count along the chain named. Like-named read-outs stand apart in the source and are kept apart here.

B1: PMP20E10 (VHH)
VHH: EVQLVESGGGLVQPGGSLRLSCAASGSVFKINVMAWYRQAPGKGRELVAGIVSGGSTSYADSVKGRFTISRDNAKNTLYLQMNSLRPEDTAVYYCAFITTESDYDLGRRYWGQGTLVTVSS
notes: not shown: c-myc and (His)6 tags
For the molecule B1, the Kd – broadly, the equilibrium constant for the complex coming apart – in experiment [1] came out at 0.033 nM. In addition, the on-rate (kon) (commonly the rate constant with which the complex forms) in [2] was about 1e+06 M⁻¹ s⁻¹. Besides, the koff (as a rule, the first-order rate constant of dissociation) in experiment [3] is 3.3e-05 s⁻¹. Further, the IC50 (usually the concentration that gives 50% inhibition) in experiment [4] was found to be 0.1 nM; in [6] it was 0.13 nM. For the same molecule, the “IC50 (read off the curve)” value in experiment [5] is about 0.4 nM.

B2: PMP21D11 (VHH)
VHH: B1 VHH with S53T
notes: as for B1
B2 showed a Kd in [1] of 0.035 nM. In experiment [2], the kon is about 1e+06 M⁻¹ s⁻¹. The molecule further had a koff in experiment [3] of 3.5e-05 s⁻¹. Besides, in experiment [5], the “IC50 (read off the curve)” value was about 0.4 nM. In addition, the IC50 in experiment [6] came to 0.13 nM.

B3: PMP20F6 (VHH)
VHH: B1 VHH with E101N
notes: as for B1
In experiment [1], B3 registered a Kd of 0.033 nM. Also, the kon in [2] was about 1e+06 M⁻¹ s⁻¹. The same molecule yielded a koff in [3] of 3.3e-05 s⁻¹. For the same molecule, the IC50 in experiment [4] amounted to 0.07 nM; in [6], 0.13 nM. In addition, the “IC50 (read off the curve)” value in [5] is about 0.4 nM.

B4: PMP21A10 (VHH)
VHH: B1 VHH with V28I, S53T
notes: as for B1
In experiment [1], B4 yielded a Kd of 0.012 nM. The kon in experiment [2] was about 1e+06 M⁻¹ s⁻¹. In experiment [3], this molecule showed an off-rate (koff) of 1.2e-05 s⁻¹. Besides, the IC50 in [4] is 0.08 nM; in experiment [6], 0.1 nM. Moreover, the “IC50 (read off the curve)” value in experiment [5] was about 0.4 nM.

B5: IL6R84 (VHH)
VHH: EVQLVESGGGLVQPGGSLRLSCAASGFTFDDYGMSWVRQAPGKGLEWVSAISWNGNNTYYTESMKGRFTISRDNAKNTLYLQMNSLRPEDTAVYYCVKGSTAIVGVPPTYPDEYDYWGQGTLVTVSS
In experiment [7], B5 returned a Kd of 5.4 nM, a koff of 0.00409 s⁻¹ and a kon of 762000 M⁻¹ s⁻¹. For the same molecule, in experiment [8], the IC50 came out at 0.465 nM.

B6: IL6R201 (VHH)
VHH: EVQLVESGGGLVQPGGSLRLSCAASGFTFSDYDIGWFRQAPGKGREGVSGISSSDGNTYYADSVKGRFTISRDNAKNTLYLQMNSLRPEDTAVYYCAAEPPDSSWYLDGSPEFFKYWGQGTLVTVSS
notes: also called tagless version of IL6R75; 16R201/75
In experiment [9], B6 yielded an equilibrium dissociation constant (Kd) of 28.1 nM, a koff of 0.00611 s⁻¹ and a kon of 218000 M⁻¹ s⁻¹. The “IC50 (read off the curve)” value in experiment [10] was about 0.6 nM. In addition, the “IC50 (read off the curve)” value in experiment [11] is about 0.04 nM.

B7: IL6R61 (VHH)
VHH: EVQLVESGGGLVQPGGSLRLSCAASGSIFKVNAMGWYRQAPGKGRELVAGIISGGSTNYADSVKGRLTISRDNAKNTVYLQMNSLRPEDTAVYYCSFVTTNSDYDLGRDYWGQGTLVTVSS
Regarding B7, in experiment [7], binding was put at a Kd of 2 nM, the koff was 0.0017 s⁻¹ and the kon was 850000 M⁻¹ s⁻¹. The “fold difference of IC50 to IL6R03” value in experiment [12] was at most 2 fold. The IC50 in [13] was 0.336 nM.

B8: IL6R63 (VHH)
VHH: B7 VHH with V78L
For B8, in experiment [7], the affinity, expressed as Kd, was 3.7 nM; the koff amounted to 0.00365 s⁻¹; the kon is 990000 M⁻¹ s⁻¹. For the same molecule, the “fold difference of IC50 to IL6R03” value in experiment [12] is about 4 fold. This molecule also came in with an IC50 in [13] of 0.65 nM.

B9: IL6R62 (VHH)
VHH: B7 VHH with L67F
Turning to B9, in experiment [7], the Kd is 2.2 nM, the koff worked out at 0.00207 s⁻¹ and the kon turned out to be 929000 M⁻¹ s⁻¹. The “fold difference of IC50 to IL6R03” value in experiment [12] is at most 2 fold. In [13], this molecule gave a half-inhibitory concentration (IC50) of 0.28 nM.

B10: IL6R64 (VHH)
VHH: B7 VHH with S96A
For B10, the koff in experiment [7] was 0.001 s⁻¹. In experiment [12], the “fold difference of IC50 to IL6R03” value was at most 2 fold. In experiment [13], this molecule had an IC50 of 0.108 nM.

These data come from US20120077731A1 (Ablynx, published 2012).
